# Source: patent US20230390362A1, “USE OF TRIGONAL AGONIST HAVING ACTIVITIES TO ALL OF GLUCAGON, GLP-1, AND GIP RECEPTORS IN TREATMENT OF SEQUELAE FOLLOWING RESPIRATORY INFECTIOUS DISEASES” (HANMI PHARM. CO., LTD., priority 2020, published 2023)
# Positions of bridges follow the written chain, without caps; N, C: chain ends. Non-standard residues stand in square brackets, D forms with d. No end group written: not given here. *: point of attachment. Acetyl(2-(4-imidazolyl)) = O=C(Cc1c[nH]cn1)*; Aib = CC(C)(N)C(=O)O
# T1: human GIP receptor (human, UniProt P48546 22-466)
# T1 sequence (looked up): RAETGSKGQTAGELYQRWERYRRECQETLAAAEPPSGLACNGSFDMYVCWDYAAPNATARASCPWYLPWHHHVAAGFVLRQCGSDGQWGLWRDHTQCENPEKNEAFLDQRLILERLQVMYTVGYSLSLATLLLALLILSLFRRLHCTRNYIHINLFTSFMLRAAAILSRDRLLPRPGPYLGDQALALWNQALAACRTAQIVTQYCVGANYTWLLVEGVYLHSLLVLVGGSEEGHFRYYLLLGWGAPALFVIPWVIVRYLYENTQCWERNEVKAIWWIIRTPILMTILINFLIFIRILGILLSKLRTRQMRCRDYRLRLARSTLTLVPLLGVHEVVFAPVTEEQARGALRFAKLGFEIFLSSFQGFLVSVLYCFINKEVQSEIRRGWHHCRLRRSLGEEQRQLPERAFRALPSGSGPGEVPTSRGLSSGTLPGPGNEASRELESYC
# Experiments:
# Test in all cases: cell-based or functional assay
# human GCG receptor = human GCG receptor (human, UniProt P47871 26-477)
# Sequence of human GCG receptor (P47871 26-477): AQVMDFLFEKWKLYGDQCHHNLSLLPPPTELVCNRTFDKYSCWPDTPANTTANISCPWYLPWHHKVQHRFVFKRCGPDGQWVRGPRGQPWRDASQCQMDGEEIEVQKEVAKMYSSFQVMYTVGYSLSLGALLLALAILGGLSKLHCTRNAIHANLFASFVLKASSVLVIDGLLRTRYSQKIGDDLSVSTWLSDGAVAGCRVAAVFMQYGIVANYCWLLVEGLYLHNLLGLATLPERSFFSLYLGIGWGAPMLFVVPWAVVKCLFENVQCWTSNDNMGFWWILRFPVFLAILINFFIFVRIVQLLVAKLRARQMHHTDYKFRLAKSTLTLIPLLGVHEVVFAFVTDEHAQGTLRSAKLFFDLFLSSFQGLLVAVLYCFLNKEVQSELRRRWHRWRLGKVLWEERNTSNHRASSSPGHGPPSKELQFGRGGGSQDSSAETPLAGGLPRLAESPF
# human GIP receptor = target: T1, human GIP receptor
# human GLP-1 receptor = human GLP-1 receptor (human, UniProt P43220 24-463)
Binder,"In vitro activity relative to native peptide (%), vs. Glucagon (cAMP EC50) (human GCG receptor)","In vitro activity relative to native peptide (%), vs. GIP (cAMP EC50) (human GIP receptor)","In vitro activity relative to native peptide (%), vs. GLP-1 (cAMP EC50) (human GLP-1 receptor)"
Y[Aib]QGTFTSDCSKYLDERAAKDFVQWLLDHHPSSGQPPPS (bridge 16-20) [trigonal agonist of SEQ ID NO: 72],1%,1.6%,11.5%
Y[Aib]QGTFTSDYSKCLDERAAKEFVQWLLDHHPSSGQPPPS (bridge 16-20) [trigonal agonist of SEQ ID NO: 69],9.6%,62.8%,24.3%
{Acetyl(2-(4-imidazolyl))}-[Aib]QGTFTSDYSIAMDEIACKDFVNWLLNTK (bridge 15-19) [trigonal agonist of SEQ ID NO: 61],< 0.1%,2.8%,59.8%
{Acetyl(2-(4-imidazolyl))}-[Aib]QGTFTSDYSKYLDECRAKEFVQWLLDHHPSSGQPPPS (bridge 15-19) [trigonal agonist of SEQ ID NO: 73],5.4%,3%,22.6%
{Acetyl(2-(4-imidazolyl))}-[Aib]QGTFTSDYSKYLDEKRQKEFVQWLLDTC (bridge 15-19) [trigonal agonist of SEQ ID NO: 82],1.1%,< 0.1%,9.5%
H[Aib]EGTFTSDYSIAMDEIHQKDFVNWLLAQKC (bridge 16-20) [trigonal agonist of SEQ ID NO: 79],4.9%,1.4%,41.5%
H[Aib]EGTFTSDYSIAMDEIHQKDFVDWLLAEKC (bridge 16-20) [trigonal agonist of SEQ ID NO: 80],0%,0.1%,8.1%
H[Aib]QGTFTSDVSKYLDGQAAQEFVAWLLKGC [trigonal agonist of SEQ ID NO: 8],0.1%,< 0.1%,14.2%
Y[Aib]QGTFTSDYSKCLDEKRAKDFVQWLLDHHPSSGQPPPS (bridge 16-20) [trigonal agonist of SEQ ID NO: 70],71.3%,64.4%,15.1%
Y[Aib]QGTFTSDYSKYLDECAAKEFVQWLLDHHPSSGQPPPS (bridge 16-20) [trigonal agonist of SEQ ID NO: 64],60.1%,92.9%,64.6%
Y[Aib]QGTFTSDYSKYLDECRAKDFVQWLLDHHPSSGQPPPS (bridge 16-20) [trigonal agonist of SEQ ID NO: 66],172%,17.2%,15.8%
Y[Aib]QGTFTSDYSKYLDERACKDFVQWLLDHHPSSGQPPPS (bridge 16-20) [trigonal agonist of SEQ ID NO: 71],12.7%,94.7%,90.1%
Y[Aib]QGTFTSDYSKCLDEKAAKEFVQWLLDHHPSSGQPPPS (bridge 16-20) [trigonal agonist of SEQ ID NO: 68],8.8%,107%,27.9%
H[Aib]QGTFTSDYSKCLDEKRAKEFVQWLLDHHPSSGQPPPS (bridge 16-20) [trigonal agonist of SEQ ID NO: 65],25.2%,11.6%,95.4%
H[Aib]QGTFTSDVSKYLDGQAAQEFVAWLLAGC [trigonal agonist of SEQ ID NO: 9],0.13%,< 0.1%,32.1%
{Acetyl(2-(4-imidazolyl))}-[Aib]QGTFTSDKSKYLDERAAQDFVQWLLDGGPSSGAPPPS [trigonal agonist of SEQ ID NO: 62],< 0.1%,< 0.1%,5.2%
H[Aib]QGTFTSDVSKYLDGQAAKEFVAWLLKGC [trigonal agonist of SEQ ID NO: 7],< 0.1%,< 0.1%,13.7%
{Acetyl(2-(4-imidazolyl))}-[Aib]QGTFTSDYSICMDEKHQKDFVNWLLNTK (bridge 15-19) [trigonal agonist of SEQ ID NO: 59],< 0.1%,4%,40.3%
Y[Aib]QGTFTSDYSKYLDEKAAKEFVQWLLDHHPSSGQPPPSC (bridge 16-20) [trigonal agonist of SEQ ID NO: 75],8.5%,18%,35.1%
{Acetyl(2-(4-imidazolyl))}-[Aib]QGTFTSDYSKYLDEKRQKEFVQWLLNTC (bridge 15-19) [trigonal agonist of SEQ ID NO: 81],0.3%,< 0.1%,7.8%
Y[Aib]QGTFTSDYSKYLDEKRAKDFVQWLLDHHPSSGQPPPSC (bridge 16-20) [trigonal agonist of SEQ ID NO: 76],47.6%,11.7%,10.3%
{Acetyl(2-(4-imidazolyl))}-[Aib]EGTFTSDYSIAMDEIHQKDFVDWLLAEC (bridge 15-19) [trigonal agonist of SEQ ID NO: 84],< 0.1%,< 0.1%,4.2%
{Acetyl(2-(4-imidazolyl))}-[Aib]QGTFTSDYSKCLDEKRAKEFVQWLLDHHPSSGQPPPS (bridge 15-19) [trigonal agonist of SEQ ID NO: 74],0.9%,1%,12.9%
Y[Aib]QGTFTSDYSKYLDECAAKDFVQWLLDHHPSSGQPPPS (bridge 16-20) [trigonal agonist of SEQ ID NO: 67],46.2%,39.8%,28.5%
{Acetyl(2-(4-imidazolyl))}-[Aib]EGTFTSDYSIAMDEIHQKDFVNWLLAQC (bridge 15-19) [trigonal agonist of SEQ ID NO: 83],1.3%,0.4%,47.3%
{Acetyl(2-(4-imidazolyl))}-[Aib]QGTFTSDCSKYLDERAAQDFVQWLLDGGPSSGAPPPS [trigonal agonist of SEQ ID NO: 63],< 0.1%,< 0.1%,15.3%
{Acetyl(2-(4-imidazolyl))}-[Aib]QGTFTSDYSIAMDEKHCKDFVNWLLNTK (bridge 15-19) [trigonal agonist of SEQ ID NO: 60],< 0.1%,8.2%,106%
Y[Aib]QGTFTSDYSKYLDEKAAKDFVQWLLDHHPSSGQPPPSC (bridge 16-20) [trigonal agonist of SEQ ID NO: 77],12.2%,35.5%,38.7%
